The record followed here is patent publication US20250154268A1 (NONA BIOSCIENCES SUZHOU, published 2025).

Residue numbers refer to the chain shown, from its start. Names and notes keep the numbering of the source. Like-named read-outs stand apart in the source and are kept apart here.

In general, EC50 refers to the concentration giving half of the maximal effect.

In assay [1] the target is T1, cynomolgus monkey CD25 (cynomolgus monkey, UniProt H6WS54 22-272).
T1 construct: whole, on cells; also called cynoCD25
T1 sequence: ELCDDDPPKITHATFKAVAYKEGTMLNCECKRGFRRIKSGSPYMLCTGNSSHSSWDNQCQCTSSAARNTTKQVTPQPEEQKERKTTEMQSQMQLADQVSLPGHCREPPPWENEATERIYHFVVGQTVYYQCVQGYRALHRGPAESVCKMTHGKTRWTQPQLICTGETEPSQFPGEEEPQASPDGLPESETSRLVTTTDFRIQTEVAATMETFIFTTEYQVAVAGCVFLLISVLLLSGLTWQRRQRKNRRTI
Description: flow cytometry, HEK293-cynoCD25 cells. In general terms: In flow cytometry, cells or beads pass a laser one at a time.
Description: (§1) Briefly, the CHOK1-huCD25 cells and HEK293-cynoCD25 cells were digested, the SU-DHL-1 cells, Karpas299 cells, Treg cells and Teff cells were collected, and the cells were resuspended in PBS containing 2% BSA. The cells were adjusted to a cell density of 1×10⁶ cells/mL, respectively. […] The cells were incubated at 4° C. for 1 hour in the dark. After the incubation, the cells were rinsed twice by adding pre-chilled PBS containing 2% BSA at 100 μL/well, and centrifuged at 500 g at 4° C. for 5 minutes, and the supernatant was discarded. […] The cells were washed twice by adding pre-chilled PBS containing 2% BSA at 100 μL/well, and centrifuged at 500 g at 4° C. for 5 minutes, and the supernatant was discarded. Finally, the cells were resuspended in pre-chilled PBS containing 2% BSA at 200 μL/well, and the fluorescence signal values were read using a BD CantoII flow cytometer.

Assay [2] addresses T2, human CD25 (human, UniProt P01589 22-272).
T2 construct: whole, on cells; Always presented on cells; also called huCD25; IL2Rα
T2 sequence (looked up): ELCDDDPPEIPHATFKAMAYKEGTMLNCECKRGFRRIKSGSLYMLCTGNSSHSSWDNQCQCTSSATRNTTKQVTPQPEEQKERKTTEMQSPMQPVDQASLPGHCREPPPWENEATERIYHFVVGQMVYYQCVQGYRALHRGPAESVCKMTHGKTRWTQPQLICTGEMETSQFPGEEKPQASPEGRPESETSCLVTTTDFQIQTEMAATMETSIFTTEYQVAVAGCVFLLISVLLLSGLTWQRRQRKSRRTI
Kind of assay: flow cytometry, Karpas299 cells.

The target in assay [3] is T2, human CD25. Kind of assay: flow cytometry, SU-DHL-1 cells.
Description: as §1
Assay [4] addresses T2, human CD25. Kind of assay: flow cytometry, Karpas299 cells. This is another data set of the same source.
Description: (§2) This example was intended to study the in-vitro binding activity of H2L2 monoclonal antibodies against human CD25 to human/cynomolgus monkey CD25. […] Briefly, the CHOK1-huCD25 cells and HEK293-cynoCD25 cells were digested, the SU-DHL-1 cells, Karpas299 cells, Treg cells and Teff cells were collected, and the cells were resuspended in PBS containing 2% BSA. The cells were adjusted to a cell density of 1×10⁶ cells/mL, respectively. […] The cells were incubated at 4° C. for 1 hour in the dark. After the incubation, the cells were rinsed twice by adding pre-chilled PBS containing 2% BSA at 100 μL/well, and centrifuged at 500 g at 4° C. for 5 minutes, and the supernatant was discarded. […] The cells were washed twice by adding pre-chilled PBS containing 2% BSA at 100 μL/well, and centrifuged at 500 g at 4° C. for 5 minutes, and the supernatant was discarded. Finally, the cells were resuspended in pre-chilled PBS containing 2% BSA at 200 μL/well, and the fluorescence signal values were read using a BD CantoII flow cytometer.
Assay [5] addresses T2, human CD25. Description: flow cytometry, SU-DHL-1 cells. The source holds these as a separate data set.
Description: as §1
For assay [6], the target named is T1, cynomolgus monkey CD25. Description: flow cytometry, HEK293-cynoCD25 cells. The source holds these as a separate data set.
Description: as §2
Assay [7] deals with T2, human CD25. Description: flow cytometry, CHOK1-huCD25 cells.
Description: as §2
The target of assay [8] is T2, human CD25. Kind of assay: flow cytometry, SU-DHL-1 cells. This is another data set of the same source.
Description: as §1
The target in assay [9] is T2, human CD25. Description: flow cytometry, Karpas299 cells. The source holds these as a separate data set.
Description: as §2
Assay [10] concerns the target T2, human CD25. Kind of assay: flow cytometry, Karpas299 cells. This is another data set of the same source.
Description: as §1
In assay [11] the target is T2, human CD25. Kind of assay: flow cytometry, Karpas299 cells. The source holds these as a separate data set.
Description: as §2
Assay [12] deals with T2, human CD25. Description: flow cytometry, SU-DHL-1 cells. The source holds these as a separate data set.
Description: as §1
For assay [13], the target named is T2, human CD25. Kind of assay: flow cytometry, SU-DHL-1 cells. This is another data set of the same source.
Description: as §1
In assay [14] the target is T1, cynomolgus monkey CD25. Kind of assay: flow cytometry, HEK293-cynoCD25 cells. The source holds these as a separate data set.
Description: as §1
The target in assay [15] is T2, human CD25. Kind of assay: flow cytometry, CHOK1-huCD25 cells. The source holds these as a separate data set.
Description: as §1
The target of assay [16] is T2, human CD25. Description: flow cytometry, Karpas299 cells. This is another data set of the same source.
Description: as §1
Assay [17] deals with T2, human CD25. Kind of assay: flow cytometry, Karpas299 cells. The source holds these as a separate data set.
Assay [18] addresses T1, cynomolgus monkey CD25. Kind of assay: flow cytometry, HEK293-cynoCD25 cells. The source holds these as a separate data set.
Description: as §1
In assay [19] the target is T2, human CD25. Kind of assay: flow cytometry, SU-DHL-1 cells. The source holds these as a separate data set.
Description: as §1
Assay [20] concerns the target T1, cynomolgus monkey CD25. Kind of assay: flow cytometry, HEK293-cynoCD25 cells. This is another data set of the same source.
Description: as §1
Assay [21] has as its target T2, human CD25. Kind of assay: flow cytometry, SU-DHL-1 cells. The source holds these as a separate data set.
Description: as §1
The target of assay [22] is T2, human CD25. Kind of assay: flow cytometry, Karpas299 cells. This is another data set of the same source.
Description: as §2
Assay [23] concerns the target T1, cynomolgus monkey CD25. Kind of assay: flow cytometry, HEK293-cynoCD25 cells. This is another data set of the same source.
Description: as §2
Assay [24] concerns the target T2, human CD25. Description: flow cytometry, SU-DHL-1 cells. The source holds these as a separate data set.
Description: as §1
In assay [25] the target is T2, human CD25. Description: flow cytometry, Karpas299 cells. This is another data set of the same source.
Assay [26] concerns the target T2, human CD25. Kind of assay: flow cytometry, SU-DHL-1 cells. This is another data set of the same source.
Description: as §1

B1: PR008014 (antibody, human IgG1, kappa, V domains shown)
VH: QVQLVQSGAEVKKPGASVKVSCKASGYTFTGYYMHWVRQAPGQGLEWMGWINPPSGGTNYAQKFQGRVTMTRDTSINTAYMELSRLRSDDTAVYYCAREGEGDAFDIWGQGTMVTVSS
VL: DFQMTQSPSTLSASVGDRVTITCRASQSISSWLAWYQQKPGKAPKLLIYEASSLKSGVPSRFSGSESGTEFTLTISSLQPDDFATYYCHQYLSYSTFGQGTKVEIKR
notes: PTM variant of PR006931 (VH: N54P, S60Y); human IgG1
As for B1, the EC50 worked out at 1.63 nM with cynomolgus monkey CD25 [1], 30 nM with human CD25 [2] and 1.36 nM with human CD25 [3]. Besides, the “Maximum MFI” value came out at 31500 MFI with cynomolgus monkey CD25 [1], 9510 MFI with human CD25 [2] and 32800 MFI with human CD25 [3].

B2: PR008015 (antibody, human IgG1, kappa, V domains shown)
VH: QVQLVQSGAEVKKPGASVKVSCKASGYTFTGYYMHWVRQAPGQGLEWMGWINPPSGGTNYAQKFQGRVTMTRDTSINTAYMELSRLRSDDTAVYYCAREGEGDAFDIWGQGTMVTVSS
VL: B1 VL with L92M
notes: PTM variant of PR006931 (VH:N54P, S60Y); human IgG1
Take B2: the EC50 with human CD25 [4] was 20 nM; with human CD25 [5] it was 0.85 nM.

B3: PR005497 (antibody, human IgG1, kappa, V domains shown)
VH: QVQLQQSGPGLVKPSQTLSLTCAISGDSVSNNNAAWNWIRQSPSRGLEWLGRTHYRSDRSKWYNDYAVSVKSRITINSDTFKNQFSLQLNPVTPEDTAVYYCARDWDHDAFDIWGQGTMVTVSS
VL: B1 VL with F2I, S31G, E50K, K55E, S56T, E66G, H89L, L92N, S93G, Q99G
notes: Fully human recombinant IgG1, kappa; also called 245E10F1
Consider B3, for which the EC50 with cynomolgus monkey CD25 [6] worked out at 6.4 nM; with human CD25 [7] it was 2.73 nM; with human CD25 [8] it was 2.4 nM; with human CD25 [9], 2.81 nM.

B4: PR008016 (antibody, human IgG1, kappa, V domains shown)
VH: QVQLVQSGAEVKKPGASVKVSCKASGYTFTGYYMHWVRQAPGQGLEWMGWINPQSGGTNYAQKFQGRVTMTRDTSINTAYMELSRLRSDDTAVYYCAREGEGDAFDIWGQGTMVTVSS
VL: B1 VL with L92M
notes: PTM variant of PR006931 (VH:N54Q, S60Y); human IgG1
In the case of B4, the EC50 came out at 2.25 nM with cynomolgus monkey CD25 [1], 40 nM in the assay with human CD25 [2] and 4.02 nM with human CD25 [3]. In addition, the “Maximum MFI” value with cynomolgus monkey CD25 [1] is 27900 MFI; with human CD25 [2] it was 8600 MFI; with human CD25 [3], 34500 MFI.

B5: RG6292 (antibody, human IgG1, kappa, V domains shown)
VH: QVQLVQSGAEVKKPGSSVKVSCKASGGTFSSLAISWVRQAPGQGLEWMGGIIPIFGTANYAQKFQGRVTITADESTSTAYMELSSLRSEDTAVYYCARGGSVSGTLVDFDIWGQGTMVTVSS
VL: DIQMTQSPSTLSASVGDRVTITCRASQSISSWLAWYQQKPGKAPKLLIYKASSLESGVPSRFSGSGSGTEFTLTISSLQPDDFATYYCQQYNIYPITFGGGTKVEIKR
notes: also called PR004639; PR004639AF
B5: the EC50 with human CD25 [10] turned out to be 30 nM; with human CD25 [11], 11.8 nM; with cynomolgus monkey CD25 [6] it was 6.75 nM; with human CD25 [12], 1.29 nM; in the assay with human CD25 [4], 5 nM; in the assay with cynomolgus monkey CD25 [1], 80.8 nM. In addition, the EC50 is 3.87 nM in the assay with human CD25 [13]; 40 nM in the assay with cynomolgus monkey CD25 [14]; 45.8 nM with human CD25 [7]; 40 nM in the assay with human CD25 [15]; 14.3 nM with human CD25 [16]; 5 nM with human CD25 [2]. In addition, the EC50 with human CD25 [17] turned out to be 30 nM; in the assay with cynomolgus monkey CD25 [18] it was 4.33 nM; in the assay with human CD25 [19], 3.87 nM; with cynomolgus monkey CD25 [20], 20.9 nM; with human CD25 [21], 0.95 nM; in the assay with human CD25 [22], 3.41 nM. Further, the EC50 with human CD25 [8] is 1.35 nM; with cynomolgus monkey CD25 [23] it was 80.8 nM; with human CD25 [9] it was 2.22 nM; with human CD25 [24] it was 1.57 nM; with human CD25 [3], 1.28 nM; with human CD25 [5], 1.28 nM. Moreover, the concentration giving a half-maximal response (EC50) with human CD25 [25] amounted to 5 nM; in the assay with human CD25 [26], 1.4 nM. The “Maximum MFI” value in the assay with human CD25 [10] was 11800 MFI; with cynomolgus monkey CD25 [1] it was 8590 MFI; with human CD25 [13] it was 32900 MFI; in the assay with cynomolgus monkey CD25 [14], 2660 MFI; in the assay with human CD25 [15], 2660 MFI; in the assay with human CD25 [16] it was 20900 MFI. The “Maximum MFI” value in the assay with human CD25 [2] was determined as 9560 MFI; with human CD25 [17] it was 11800 MFI; in the assay with cynomolgus monkey CD25 [18], 125000 MFI; in the assay with human CD25 [19] it was 32900 MFI; with cynomolgus monkey CD25 [20], 89700 MFI; in the assay with human CD25 [24] it was 28000 MFI. The “Maximum MFI” value with human CD25 [3] was 29700 MFI; with human CD25 [25], 10100 MFI; with human CD25 [26] it was 30700 MFI.

B6: PR006110 (antibody, V domains shown)
VH: QVQLQESGPGLVKPSGTLSLTCAVSGGSISSSNYWSWVRQPPGKGLEWIGEIYHSGSTNYNPSLKSRVTISLDKSKNQFSLKLSSVTAADTAVYYCARDRNYGSGNYPHYYHYYGMDVWGQGTTVTVSS
VL: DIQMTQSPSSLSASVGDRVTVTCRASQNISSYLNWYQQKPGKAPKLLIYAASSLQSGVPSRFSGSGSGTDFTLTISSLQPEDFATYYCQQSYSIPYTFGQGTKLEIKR
notes: Fully human recombinant IgG1, kappa; also called 307B8G6
For the molecule B6, the EC50 is 1.73 nM with human CD25 [11] and 1.95 nM with human CD25 [12].

B7: PR008197 (antibody, human IgG1, kappa, V domains shown)
VH: QVQLQGSGPGLVKPSGTLSLTCAVSPGSISSSNWWNWVRQPPGKGLEWIGEIYHRGSTNYNPSLKSRVTISVDKSKNQFSLKLSSVTAADTAVYYCTHYYYDSSGYYYGYWGQGTLVTVSS
VL: DIVMTQSPLSLPVTPGEPASISCRSSQSLLHRDVYNYVDWYLQKPGQSPQLLIYLGSNRASGVPDRFSGSGSGTDFTLKISRVEAEDVGVYYCLQALQTPLTFGGGTKVEIKR
notes: PTM variant of PR005436 (VH:D26P); human IgG1
On to B7, for which the EC50 in the assay with human CD25 [21] turned out to be 1.55 nM; with human CD25 [22], 8 nM; in the assay with cynomolgus monkey CD25 [23], 2.25 nM.
